Assay results as given in patent publication US10907134B2, “Mutated genes for the catalytic protein of oplophorus luciferase and use thereof” (JNC CORPORATION, priority 2013, dated 2021).

Columns and labels:
[1] = Substrate specificities of KAZ mutants (ZZ-fused, crude enzyme), h-CTZ; assay type: biochemical; conditions: 1 μg substrate; for Relative Luminescence Activity h-CTZ Int.: integrated for 60 seconds; for Relative Luminescence Activity h-CTZ Imax: maximum intensity of luminescence
Method: (§1) The coelenterazine analogues used for substrate specificity studies were synthesized by the methods described in publications. Specifically, bis-coelenterazine was synthesized by the method described in Nakamura et al. (1997) Tetrahedron Lett. 38: 6405-6406; furimazine by the method described in Hall et al. (2012) ACS Chem. Biol. […]; and, 6h-coelenterazine, f-coelenterazine and 6h-f-coelenterazine by the methods described in Inouye et al (2013) Biochem. Biophys. Res. Commun. 437: 23-28.
(§2) DTT was added to the crude enzyme solutions obtained in EXAMPLE 17 at a final concentration of 1 mM and the mixtures were allowed to stand in an ice water for more than 5 hours in the same manner as Example 8. A luminescence reaction was started by the addition of 1 μL each of the crude enzyme solutions to 100 μL of TE containing 1 μg of coelenterazine (manufactured by JNC Corp.) or its analogues. The luminescence activities were determined using a luminometer (manufactured by Atto Inc.: AB2200) for 60 seconds, and the maximum intensity of luminescence (Imax) was shown as relative luminescence activity.

[2] = Substrate specificities of KAZ mutants (ZZ-fused, crude enzyme), furimazine; assay type: biochemical; conditions: 1 μg substrate; for Relative Luminescence Activity Furimazine Int.: integrated for 60 seconds; for Relative Luminescence Activity Furimazine Imax: maximum intensity of luminescence
Method: as §1, §2

[3] = Substrate specificities of KAZ mutants (ZZ-fused, crude enzyme), bis-CTZ; assay type: biochemical; conditions: 1 μg substrate; for Relative Luminescence Activity bis-CTZ Int.: integrated for 60 seconds; for Relative Luminescence Activity bis-CTZ Imax: maximum intensity of luminescence
Method: as §1, §2

[4] = Substrate specificities of KAZ mutants (ZZ-fused, crude enzyme), f-CTZ; assay type: biochemical; conditions: 1 μg substrate; for Relative Luminescence Activity f-CTZ Int.: integrated for 60 seconds; for Relative Luminescence Activity f-CTZ Imax: maximum intensity of luminescence
Method: as §1, §2

[5] = system: CHO-K1 cells; assay: Luminescence activity of KAZ mutants expressed in animal culture cells without secretional signal peptide sequence; assay type: cell-based, Chinese hamster; conditions: CHO-K1, coelenterazine; for Relative Luminescence Activity (Imax) Cell Extracts / Relative Luminescence Activity (Imax) Culture Medium: Table 12, pcDNA3- vectors without secretion signal; for Luminescence activity in the cell extracts, fold higher than wild KAZ: vectors without a secretion signal
Method: Chinese hamster ovary cell line CHO-K1 was cultured in Ham's F-12 medium (manufactured by Wako Pure Chemical Industries, Ltd.) supplemented with 10% (v/v) fetal bovine serum (manufactured by Biowest Inc.). The CHO-K1 cells were plated in a 6-well plate in 1×10^5 cells/well/2 mL medium (n=2) and cultured in an incubator at 37° C. in 5% (v/v) CO2. After 24 hours, the purified recombinant plasmid was transfected to CHO-K1 cells using a FuGene HD transfection kit (manufactured by Promega Corp.), which was provided for subsequent experiment. Specifically, 1 μg of the recombinant plasmid pGL4.13 [Luc2/sv40], 0.1 μg of the internal standard vector and 3 μL of FuGene HD were added to 100 μL of the medium, which was allowed to stand at room temperature for 15 minutes. Subsequently, 100 μL of the DNA-FuGene complex was added to the cells in the 6 wells. After incubation for 48 hours, the culture medium was collected. On the other hand, the KAZ mutants expressed in the cells were washed 3 times with 3 mL of 1×PBS, then suspended in 1 mL of 1×PBS and disrupted on ice by ultrasonication, which was used as enzyme solutions of the cell-extracts of KAZ mutants.
A luminescence reaction was started by adding 5 μL of the culture media and cell extracts obtained in EXAMPLE 10 to 100 μL of 30 mM Tris-HCl (pH 7.6)-10 mM EDTA (manufactured by Wako Pure Chemical Industries, Ltd.) containing 0.5 μg of coelenterazine (manufactured by INC Corp.). The luminescence activity was determined using a luminometer (manufactured by Atto Inc.: AB2200) for 60 seconds, and the maximum intensity of luminescence (Imax) was defined as a percentage.
The gene fragments of the KAZ mutants with two amino acid substitutions and three amino acid substitutions and nanoKAZ containing the Kozak sequence were digested with restriction enzymes Asp718 and XbaI, and inserted into the Asp718-XbaI site of pcDNA3 vector (manufactured by Invitrogen Inc.) to construct the vectors of pcDNA3-KAZ-V44I, pcDNA3-KAZ-A54I, pcDNA3-KAZ-Y138I, pcDNA3-KAZ-V44I-A54I, pcDNA3-KAZ-V44I-Y138I, pcDNA3-KAZ-A54I-Y138I and pcDNA3-KAZ-V44I-A54I-Y138I.
The culture media of the KAZ mutants with two amino acid substitutions and KAZ mutants with three amino acid substitutions and the enzyme solutions of cell-extracts of KAZ mutants were obtained in the same manner as EXAMPLE 10.
Luminescence activities of the resulting enzyme solutions and enzyme solutions of the cell-extracts of KAZ mutants were determined in the same manner as EXAMPLE 11.

[6] = Luminescence activity of ZZ-fused KAZ mutants in crude enzyme solutions; assay type: biochemical; conditions: for Relative Luminescence Activity (Imax): ZZ-fused (pCold-ZZ-P-), 1 mM DTT; for Luminescence activity, times higher than that of wild KAZ: coelenterazine (Table 4)
Outline: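 E. coli BL21 crude extracts held with 1 mM DTT (final) on ice over 5 hours. Reaction started with 1 μL extract in 100 μL TE containing 1 μg coelenterazine; luminescence read for 60 seconds, maximum intensity (Imax) reported as relative activity.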

[7] = Table 4, 1 μL crude enzyme solution, 1 μg coelenterazine
[8] = Table 9, crude enzyme solution, coelenterazine
[9] = ZZ-fused, crude enzyme solution

| Relative Luminescence Activity h-CTZ Int. [1] | Relative Luminescence Activity h-CTZ Imax [1] | Relative Luminescence Activity Furimazine Int. [2] | Relative Luminescence Activity Furimazine Imax [2] | Relative Luminescence Activity bis-CTZ Int. [3] | Relative Luminescence Activity bis-CTZ Imax [3] | Relative Luminescence Activity f-CTZ Int. [4] | Relative Luminescence Activity f-CTZ Imax [4] | Relative Luminescence Activity (Imax) [6, 7] | Relative Luminescence Activity (Imax) [6, 8] | Luminescence activity compared with dnKAZ ([6]; ZZ-fused, crude enzyme solution, coelenterazine) | Luminescence activity, times higher than that of wild KAZ [6, 9] [times] | Molecule | Relative Luminescence Activity (Imax) Cell Extracts [5] | Relative Luminescence Activity (Imax) Culture Medium [5] | Luminescence activity in the cell extracts, fold higher than wild KAZ [5] [fold] |
| --- | --- | --- | --- | --- | --- | --- | --- | --- | --- | --- | --- | --- | --- | --- | --- |
| 6.9 | 11.8 | 2.1 | 2.0 | 3.4 | 3.0 | 4.9 | 8.2 | 8.9 | 8.4 | comparable to dnKAZ | 8.9 | KAZ-A54I: KAZ with single amino acid substitution A54I, SEQ ID NO: 6 (protein) FTLADFVGDWQQTAGYNQDQVLEQGGLSSLFQALGVSVTPIQKVVLSGENGLKIDIHVIIPYEGLSGFQMGLIEMIFKVVYPVDDHHFKIILHYGTLVIDGVTPNMIDYFGRPYPGIAVFDGKQITVTGTLWNGNKIYDERLINPDGSLLFRVTINGVTGWRLCENILA | 6.7 | 0.03 | 6.7 |
| 3.0 | 3.9 | 0.8 | 0.6 | 1.5 | 1.3 | 2.4 | 2.4 | 5.9 | 7.5 | – | 5.9 | KAZ-Y138I: KAZ with single amino acid substitution Y138I, SEQ ID NO: 8 (protein) FTLADFVGDWQQTAGYNQDQVLEQGGLSSLFQALGVSVTPIQKVVLSGENGLKADIHVIIPYEGLSGFQMGLIEMIFKVVYPVDDHHFKIILHYGTLVIDGVTPNMIDYFGRPYPGIAVFDGKQITVTGTLWNGNKIIDERLINPDGSLLFRVTINGVTGWRLCENILA | 6.4 | 0.03 | 6.4 |
| 2.2 | 3.7 | 0.9 | 0.6 | 1.4 | 1.1 | 2.0 | 2.1 | 6.6 | 7.2 | – | 6.6 | KAZ-V44I: KAZ with single amino acid substitution V44I, SEQ ID NO: 4 (protein) FTLADFVGDWQQTAGYNQDQVLEQGGLSSLFQALGVSVTPIQKIVLSGENGLKADIHVIIPYEGLSGFQMGLIEMIFKVVYPVDDHHFKIILHYGTLVIDGVTPNMIDYFGRPYPGIAVFDGKQITVTGTLWNGNKIYDERLINPDGSLLFRVTINGVTGWRLCENILA | 3.7 | 0.06 | 3.7 |
